From doi:10.1101/2022.04.11.487887 (bioRxiv, 2022)
No end group written: not given here.

What was measured:
[1] = target: Halo-Xenopus γTuNA-GCN4 F75A (Xenopus laevis | yeast); assay: SEC
[2] = target: Halo-Xenopus γTuNA-GCN4 I67A (Xenopus laevis | yeast); assay: SEC
[3] = target: Halo-Xenopus γTuNA-GCN4 L70A (Xenopus laevis | yeast); assay: SEC
[4] = target: Halo-Xenopus γTuNA-GCN4 L77A (Xenopus laevis | yeast); assay: SEC
[5] = target: Halo-Xenopus γTuNA-GCN4 wildtype (Xenopus laevis | yeast); assay: SEC
[6] = target: Strep-His-TEV-HaloTag-3C-Xenopus γTuNA (Xenopus laevis); assay: pull-down
[7] = target: Strep-His-Halo-3C-Xenopus γTuNA I67A (Xenopus laevis); assay: pull-down
[8] = target: Strep-His-Halo-3C-Xenopus γTuNA L70A (Xenopus laevis); assay: pull-down
[9] = target: Halo-3C-AU1 reporter tagged human γTuNA, after PreScission (3C) cleavage (human); assay: co-sedimentation
[10] = target: the molecule itself; assay: SEC

Xenopus γ-tubulin ring complex (γTuRC), sequence (Q5U4M5 whole entry, looked up): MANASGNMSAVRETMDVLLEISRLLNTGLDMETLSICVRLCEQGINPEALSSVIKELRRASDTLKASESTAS
Xenopus γ-tubulin ring complex (γTuRC), sequence (P23330 whole entry, looked up): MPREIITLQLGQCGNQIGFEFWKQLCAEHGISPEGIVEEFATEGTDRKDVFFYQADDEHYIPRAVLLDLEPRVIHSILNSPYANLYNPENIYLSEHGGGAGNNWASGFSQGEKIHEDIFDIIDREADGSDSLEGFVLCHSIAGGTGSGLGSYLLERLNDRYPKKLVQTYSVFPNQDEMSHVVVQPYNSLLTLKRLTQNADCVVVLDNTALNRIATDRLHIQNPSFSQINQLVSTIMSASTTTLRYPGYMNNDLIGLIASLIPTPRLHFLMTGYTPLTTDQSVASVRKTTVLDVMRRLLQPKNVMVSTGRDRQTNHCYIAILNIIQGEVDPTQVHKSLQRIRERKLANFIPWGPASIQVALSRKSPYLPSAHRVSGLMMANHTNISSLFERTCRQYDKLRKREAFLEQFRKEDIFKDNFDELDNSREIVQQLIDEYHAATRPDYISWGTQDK

**Q.** For Halo-Xenopus γTuNA-GCN4 F75A, which stoichiometry N [1] is on record?
**A.** 2

**Q.** How did the stoichiometry N [2] turn out when Halo-Xenopus γTuNA-GCN4 I67A was run?
**A.** 2

**Q.** How did the stoichiometry N [3] turn out when Halo-Xenopus γTuNA-GCN4 L70A was run?
**A.** 2

**Q.** For Halo-Xenopus γTuNA-GCN4 L77A, which stoichiometry N [4] is on record?
**A.** 2

**Q.** With Halo-Xenopus γTuNA-GCN4 wildtype as the molecule, how does the stoichiometry N [5] read?
**A.** 2

**Q.** With “Xenopus γ-tubulin ring complex (γTuRC) (from UniProt P23330 1-451; Q5U4M5 1-72)” as the molecule, how does the percent of γ-tubulin signal lost from the extract after one round of depletion [6] read?
**A.** > 75%

**Q.** And the percent of the wildtype's γTuRC binding [7]?
**A.** 85%

**Q.** And the percent of the wildtype's γTuRC binding [8]?
**A.** 50%

**Q.** What about the percent of purified γTuRCs that lost their γTuNA dimer [9] of the same molecule?
**A.** 66%

**Q.** With SPTRARNMKDFENQITELKKENFNLKLRIYFLEERMQQEFHGPTEH (domain or fragment, not fully specified (N-terminus)) [Strep-His-TEV-HaloTag-3C-human γTuNA] as the molecule, how does the “stoichiometry N” value [10] read?
**A.** 2

**Q.** For MKDFEKQIAELKKENFNLKLRIYFLEEQVQQKCDNSSEDLYRMNIE (domain or fragment, Xenopus laevis, not fully specified (N-terminus)) [Strep-His-TEV-HaloTag-3C-Xenopus γTuNA], which “stoichiometry N” value [10] is on record?
**A.** 2

**Q.** Does MKDAEKQIAELKKENFNLKLRIYFLEEQVQQKCDNSSEDLYRMNIE (domain or fragment, Xenopus laevis, not fully specified (N-terminus)) [Strep-His-Halo-3C-Xenopus γTuNA F63A] bind [10]?
**A.** binds

**Q.** Does MKDFEKQIAELKKENANLKLRIYFLEEQVQQKCDNSSEDLYRMNIE (domain or fragment, Xenopus laevis, not fully specified (N-terminus)) [Strep-His-TEV-HaloTag-3C-Xenopus γTuNA F75A] bind [10]?
**A.** binds

**Q.** Does MKDFEKQAAELKKENFNLKLRIYFLEEQVQQKCDNSSEDLYRMNIE (domain or fragment, Xenopus laevis, not fully specified (N-terminus)) [Strep-His-Halo-3C-Xenopus γTuNA I67A] bind [10]?
**A.** binds

**Q.** Does MKDFEKQIAEAKKENFNLKLRIYFLEEQVQQKCDNSSEDLYRMNIE (domain or fragment, Xenopus laevis, not fully specified (N-terminus)) [Strep-His-Halo-3C-Xenopus γTuNA L70A] bind [10]?
**A.** binds

**Q.** Does MKDFEKQIAELKKENFNAKLRIYFLEEQVQQKCDNSSEDLYRMNIE (domain or fragment, Xenopus laevis, not fully specified (N-terminus)) [Strep-His-Halo-3C-Xenopus γTuNA L77A] bind [10]?
**A.** binds
